Measured values from patent US20150344570A1 (published 2015).

T1: FcγRIIa R (FcγRIIa, allotype with Arg at position 131), extracellular domain with C-terminal His tag (human, UniProt P12318 34-217)
T1 construct: extracellular domain; also called FcγRIIa R type; 2aR
T1 sequence (looked up): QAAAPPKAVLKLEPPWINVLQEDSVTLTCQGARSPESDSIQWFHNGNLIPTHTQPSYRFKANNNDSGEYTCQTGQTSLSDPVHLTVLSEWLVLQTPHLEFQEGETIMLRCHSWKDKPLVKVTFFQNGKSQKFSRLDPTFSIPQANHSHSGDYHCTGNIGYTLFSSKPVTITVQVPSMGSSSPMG


molecular target: T1, FcγRIIa R (FcγRIIa, allotype with Arg …); assay: SPR (Biacore), antibody captured on antigen peptide chip, FcγR as analyte; relative binding

Row | Binder | He/Con_2aR
1 | GpH7-A5/GpH7-B3 variant Y296_10E/GpL16-k0 (antibody, human IgG1, kappa, also called He Ab) heavy 1: not shown heavy 2: not shown light: DIVMTQSPLSLPVTPGEPASISCQASESLVHSNRNTYLHWYLQKPGQSPQLLIYKVSNRFSGVPDRFSGSGSGTDFTLKISRVEAEDVGVYYCSQNTHVPPTFGQGTKVEIERTVAAPSVFIFPPSDEQLKSGTASVVCLLNNFYPREAKVQWKVDNALQSGNSQESVTEQDSKDSTYSLSSTLTLSKADYEKHKVYACEVTHQGLSSPVTKSFNRGEC | 103 % of GpH7-A5/GpH7-B3/GpL16-k0 (=100)
2 | GpH7-A5/GpH7-B3 variant Y296_13S/GpL16-k0 (antibody, human IgG1, kappa, also called He Ab) heavy 1: not shown heavy 2: not shown light: DIVMTQSPLSLPVTPGEPASISCQASESLVHSNRNTYLHWYLQKPGQSPQLLIYKVSNRFSGVPDRFSGSGSGTDFTLKISRVEAEDVGVYYCSQNTHVPPTFGQGTKVEIERTVAAPSVFIFPPSDEQLKSGTASVVCLLNNFYPREAKVQWKVDNALQSGNSQESVTEQDSKDSTYSLSSTLTLSKADYEKHKVYACEVTHQGLSSPVTKSFNRGEC | 102 % of GpH7-A5/GpH7-B3/GpL16-k0 (=100)
3 | GpH7-A5/GpH7-B3 variant Y296_14T/GpL16-k0 (antibody, human IgG1, kappa, also called He Ab) heavy 1: not shown heavy 2: not shown light: DIVMTQSPLSLPVTPGEPASISCQASESLVHSNRNTYLHWYLQKPGQSPQLLIYKVSNRFSGVPDRFSGSGSGTDFTLKISRVEAEDVGVYYCSQNTHVPPTFGQGTKVEIERTVAAPSVFIFPPSDEQLKSGTASVVCLLNNFYPREAKVQWKVDNALQSGNSQESVTEQDSKDSTYSLSSTLTLSKADYEKHKVYACEVTHQGLSSPVTKSFNRGEC | 103 % of GpH7-A5/GpH7-B3/GpL16-k0 (=100)
4 | GpH7-A5/GpH7-B3 variant Y296_16H/GpL16-k0 (antibody, human IgG1, kappa, also called He Ab) heavy 1: not shown heavy 2: not shown light: DIVMTQSPLSLPVTPGEPASISCQASESLVHSNRNTYLHWYLQKPGQSPQLLIYKVSNRFSGVPDRFSGSGSGTDFTLKISRVEAEDVGVYYCSQNTHVPPTFGQGTKVEIERTVAAPSVFIFPPSDEQLKSGTASVVCLLNNFYPREAKVQWKVDNALQSGNSQESVTEQDSKDSTYSLSSTLTLSKADYEKHKVYACEVTHQGLSSPVTKSFNRGEC | 105 % of GpH7-A5/GpH7-B3/GpL16-k0 (=100)
5 | GpH7-A5/GpH7-B3 variant Y296_18N/GpL16-k0 (antibody, human IgG1, kappa, also called He Ab) heavy 1: not shown heavy 2: not shown light: DIVMTQSPLSLPVTPGEPASISCQASESLVHSNRNTYLHWYLQKPGQSPQLLIYKVSNRFSGVPDRFSGSGSGTDFTLKISRVEAEDVGVYYCSQNTHVPPTFGQGTKVEIERTVAAPSVFIFPPSDEQLKSGTASVVCLLNNFYPREAKVQWKVDNALQSGNSQESVTEQDSKDSTYSLSSTLTLSKADYEKHKVYACEVTHQGLSSPVTKSFNRGEC | 104 % of GpH7-A5/GpH7-B3/GpL16-k0 (=100)

Next, values leading:

Row | He/Con_2aR | Binder
6 | 102 % of GpH7-A5/GpH7-B3/GpL16-k0 (=100) | GpH7-A5/GpH7-B3 variant Y296_19Q/GpL16-k0 (antibody, human IgG1, kappa, also called He Ab) heavy 1: not shown heavy 2: not shown light: DIVMTQSPLSLPVTPGEPASISCQASESLVHSNRNTYLHWYLQKPGQSPQLLIYKVSNRFSGVPDRFSGSGSGTDFTLKISRVEAEDVGVYYCSQNTHVPPTFGQGTKVEIERTVAAPSVFIFPPSDEQLKSGTASVVCLLNNFYPREAKVQWKVDNALQSGNSQESVTEQDSKDSTYSLSSTLTLSKADYEKHKVYACEVTHQGLSSPVTKSFNRGEC
7 | 110 % of GpH7-A5/GpH7-B3/GpL16-k0 (=100) | GpH7-A5/GpH7-B3 variant Y296_20W/GpL16-k0 (antibody, human IgG1, kappa, also called He Ab) heavy 1: not shown heavy 2: not shown light: DIVMTQSPLSLPVTPGEPASISCQASESLVHSNRNTYLHWYLQKPGQSPQLLIYKVSNRFSGVPDRFSGSGSGTDFTLKISRVEAEDVGVYYCSQNTHVPPTFGQGTKVEIERTVAAPSVFIFPPSDEQLKSGTASVVCLLNNFYPREAKVQWKVDNALQSGNSQESVTEQDSKDSTYSLSSTLTLSKADYEKHKVYACEVTHQGLSSPVTKSFNRGEC
8 | 100 % of GpH7-A5/GpH7-B3/GpL16-k0 (=100) | GpH7-A5/GpH7-B3 variant Y300_18N/GpL16-k0 (antibody, human IgG1, kappa, also called He Ab) heavy 1: not shown heavy 2: not shown light: DIVMTQSPLSLPVTPGEPASISCQASESLVHSNRNTYLHWYLQKPGQSPQLLIYKVSNRFSGVPDRFSGSGSGTDFTLKISRVEAEDVGVYYCSQNTHVPPTFGQGTKVEIERTVAAPSVFIFPPSDEQLKSGTASVVCLLNNFYPREAKVQWKVDNALQSGNSQESVTEQDSKDSTYSLSSTLTLSKADYEKHKVYACEVTHQGLSSPVTKSFNRGEC

molecular target: T2, FcγRIIIa extracellular domain with C-terminal His tag (human, UniProt P08637 17-208); assay: SPR Biacore, captured antibody, FcγR analyte, relative binding
T2 construct: extracellular domain; also called FcgRIIIa; 3a; not shown: His tag attached to the C terminus
Procedure: Analysis of interaction between objective antibody and the FcγR was carried out using Biacore T100 (GE Healthcare). HBS-EP+ (GE Healthcare) was used as the running buffer, and the measurement temperature was set to 25° C. Chips produced by immobilizing the antigen peptide by the amine coupling method to a Series S Sencor Chip CM5 (GE Healthcare), or alternatively, chips produced by allowing preliminarily biotinylated antigen peptides to interact with and immobilize onto a Series S Sensor Chip SA (certified) (GE Healthcare) were used. Antibodies of interest were captured onto an antigen peptide-immobilized chip, and allowed to interact to each FcγR diluted with running buffer. To regenerate and repeatedly use the chip, the antibodies captured on the chip were washed off by reacting 10 mM glycine-HCl, pH 1.5.

T2 sequence (P08637 17-208): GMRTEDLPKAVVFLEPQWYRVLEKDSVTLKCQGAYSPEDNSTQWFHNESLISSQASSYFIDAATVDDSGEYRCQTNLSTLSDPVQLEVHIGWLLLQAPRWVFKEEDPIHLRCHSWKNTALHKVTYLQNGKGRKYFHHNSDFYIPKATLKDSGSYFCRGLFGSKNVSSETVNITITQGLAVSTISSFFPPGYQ

Row | Ho/Con_3a | Binder
9 | 104 % of HoCon Ab GpH7-B3/GpL16-k0 (=100) | GpH7-B3 variant K334_01G/GpL16-k0 (antibody, human IgG1, kappa, also called Ho Ab K334_01G) heavy: not shown light: DIVMTQSPLSLPVTPGEPASISCQASESLVHSNRNTYLHWYLQKPGQSPQLLIYKVSNRFSGVPDRFSGSGSGTDFTLKISRVEAEDVGVYYCSQNTHVPPTFGQGTKVEIERTVAAPSVFIFPPSDEQLKSGTASVVCLLNNFYPREAKVQWKVDNALQSGNSQESVTEQDSKDSTYSLSSTLTLSKADYEKHKVYACEVTHQGLSSPVTKSFNRGEC
10 | 111 % of HoCon Ab GpH7-B3/GpL16-k0 (=100) | GpH7-B3 variant E333_16H/GpL16-k0 (antibody, human IgG1, kappa, also called Ho Ab E333_16H) heavy: not shown light: DIVMTQSPLSLPVTPGEPASISCQASESLVHSNRNTYLHWYLQKPGQSPQLLIYKVSNRFSGVPDRFSGSGSGTDFTLKISRVEAEDVGVYYCSQNTHVPPTFGQGTKVEIERTVAAPSVFIFPPSDEQLKSGTASVVCLLNNFYPREAKVQWKVDNALQSGNSQESVTEQDSKDSTYSLSSTLTLSKADYEKHKVYACEVTHQGLSSPVTKSFNRGEC
